B1: ZER1 (parent)
chain: FDGPEAWGVCEPQREEVEERMWAA

Variants of: B1
Test: protein stability index of a GFP-peptide fusion (GPS, HEK-293T) (PSI 1-6); higher = more stable
Settings: c terminus: a fixed tail appended
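Also: lentivirally expressed fusions sorted by FACS into six bins by GFP to DsRed ratio, PSI derived from sequencing read proportions per bin multiplied by bin number.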

Point of comparison: A24K, protein stability index 2.78. Against it:
- V17S — lower, 2.64
- E18Q — lower, 1.95
- F1W — higher, 4.5
- V9H — higher, 3.18

— the supplement of paper PMC10567573
